{
  "source": "patent US20200190473A1",
  "about": "“Plasmacytoid Dendritic Cells Having Immune Tolerance, and Method for Producing Same” (QURATIS INC., priority 2017, published 2020)",
  "key": {"[1]": {"tested_on": "plasmacytoid dendritic cells", "format": "cell-based, mouse", "conditions": "pDC differentiated with TLR agonist on day 3, stimulated with ODN1826 (1 μg/ml), 24 hours, ELISA; vs conventional pDC"}, "[2]": {"target": "TLR2 receptor (Mus musculus, UniProt Q9QUN7)", "sequence (Q9QUN7 25-784)": "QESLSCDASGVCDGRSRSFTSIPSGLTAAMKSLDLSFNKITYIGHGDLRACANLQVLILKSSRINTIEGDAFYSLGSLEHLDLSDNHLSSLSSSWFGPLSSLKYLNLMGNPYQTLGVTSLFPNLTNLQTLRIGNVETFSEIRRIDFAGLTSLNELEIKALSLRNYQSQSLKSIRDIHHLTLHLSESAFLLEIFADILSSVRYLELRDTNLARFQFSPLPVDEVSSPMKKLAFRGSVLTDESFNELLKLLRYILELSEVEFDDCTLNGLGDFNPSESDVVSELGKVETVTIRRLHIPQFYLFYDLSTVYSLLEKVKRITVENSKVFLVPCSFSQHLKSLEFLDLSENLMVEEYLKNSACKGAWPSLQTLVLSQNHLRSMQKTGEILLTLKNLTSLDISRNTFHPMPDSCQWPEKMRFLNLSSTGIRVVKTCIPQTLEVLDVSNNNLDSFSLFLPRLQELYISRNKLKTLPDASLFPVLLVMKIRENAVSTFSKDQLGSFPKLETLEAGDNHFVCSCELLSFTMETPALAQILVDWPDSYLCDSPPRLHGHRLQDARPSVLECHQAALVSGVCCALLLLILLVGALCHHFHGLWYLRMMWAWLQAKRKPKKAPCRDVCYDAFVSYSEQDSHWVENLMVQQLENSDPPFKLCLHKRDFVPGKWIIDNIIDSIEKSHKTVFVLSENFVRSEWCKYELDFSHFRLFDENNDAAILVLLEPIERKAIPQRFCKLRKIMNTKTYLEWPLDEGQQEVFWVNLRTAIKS", "format": "binding"}, "[3]": {"tested_on": "TLR2 receptor", "format": "binding, mouse", "conditions": "5 μg/ml, 2 hours; compared to untreated group"}},
  "data": [
    {"molecule": "Rv1411c protein: His-labeled protein derived from M tuberculosis, confirmed as TLR2 agonist (protein, UniProt P9WK45 27-236, looked up, His tag, His-labeled protein derived from M tuberculosis, confirmed as TLR2 agonist) Lipoarabinomannan carrier …: CSSGSKPSGGPLPDAKPLVEEATAQTKALKSAHMVLTVNGKIPGLSLKTLSGDLTTNPTAATGNVKLTLGGSDIDADFVVFDGILYATLTPNQWSDFGPAADIYDPAQVLNPDTGLANVLANFADAKAEGRDTINGQNTIRISGKVSAQAVNQIAPPFNATQPVPATVWIQETGDHQLAQAQLDRGSGNSVQMTLSKWGEKVQVTKPPVS", "values": [
      {"measurement": "expression level of IFN-α", "setting": "[1]", "value": "drastically reduced in a concentration-dependent manner"},
      {"measurement": "expression level of IFN-β", "setting": "[1]", "value": "drastically reduced in a concentration-dependent manner"},
      {"measurement": "expression level of IL-10", "setting": "[1]", "value": "marked increase in a concentration-dependent manner"},
      {"measurement": "expression level of IL-12p70", "setting": "[1]", "value": "drastically reduced in a concentration-dependent manner"},
      {"measurement": "expression level of TNF-α", "setting": "[1]", "value": "drastically reduced in a concentration-dependent manner"},
      {"measurement": "binding to TLR2 receptor", "setting": "[2]", "value": "binds to the TLR2 receptor"},
      {"measurement": "binding to wild-type dendritic cells (WT)", "setting": "[2]", "value": "increased binding"},
      {"measurement": "binding strength to TLR2 knockout-derived dendritic cells (TLR2−/−)", "setting": "[3]", "value": "the same as that in the untreated experimental group"}
    ]}
  ]
}
